Literature values as cited in US10190113B2, “Methods and compositions for segregating target nucleic acid from mixed nucleic acid samples” (FLIR DETECTION, INC., priority 2011, dated 2019).

Tested on: nucleic acid recognition or cleavage site
Conditions: mutant restriction enzyme relative to wild type; cited from earlier work

Molecule | % of WT cleavage activity [%]
EcoRV K92E: EcoRV restriction enzyme with mutation K92E (protein, UniProt P04390 2-245, looked up, variant K92E) Type II restriction enzyme …: SLRSDLINALYDENQKYDVCGIISAEGKIYPLGSDTKVLSTIFELFSRPIINKIAEKHGYIVEEPKQQNHYPDFTLYKPSEPNKKIAIDIETTYTNKENEKIKFTLGGYTSFIRNNTKNIVYPFDQYIAHWIIGYVYTRVATRKSSLKTYNINELNEIPKPYKGVKVFLQDKWVIAGDLAGSGNTTNIGSIHAHYKDFVEGKGIFDSEDEFLDYWRNYERTSQLRNDKYNNISEYRNWIYRGRK | <0.1
EcoRV K92Q: EcoRV restriction enzyme with mutation K92Q (protein, UniProt P04390 2-245, looked up, variant K92Q) Type II restriction enzyme …: SLRSDLINALYDENQKYDVCGIISAEGKIYPLGSDTKVLSTIFELFSRPIINKIAEKHGYIVEEPKQQNHYPDFTLYKPSEPNKKIAIDIQTTYTNKENEKIKFTLGGYTSFIRNNTKNIVYPFDQYIAHWIIGYVYTRVATRKSSLKTYNINELNEIPKPYKGVKVFLQDKWVIAGDLAGSGNTTNIGSIHAHYKDFVEGKGIFDSEDEFLDYWRNYERTSQLRNDKYNNISEYRNWIYRGRK | 0
BamHI G130R: BamHI restriction enzyme with mutation G130R (protein, UniProt P23940 1-213, looked up, variant G130R) Type II restriction enzyme …: MEVEKEFITDEAKELLSKDKLIQQAYNEVKTSICSPIWPATSKTFTINNTEKNCNGVVPIKELCYTLLEDTYNWYREKPLDILKLEKKKGGPIDVYKEFIENSELKRVGMEFETGNISSAHRSMNKLLLRLKHGEIDLAIILMPIKQLAYYLTDRVTNFEELEPYFELTEGQPFIFIGFNAEAYNSNVPLIPKGSDGMSKRSIKKWKDKVENK | 0.1
BamHI G194D: BamHI restriction enzyme with mutation G194D (protein, UniProt P23940 1-213, looked up, variant G194D) Type II restriction enzyme …: MEVEKEFITDEAKELLSKDKLIQQAYNEVKTSICSPIWPATSKTFTINNTEKNCNGVVPIKELCYTLLEDTYNWYREKPLDILKLEKKKGGPIDVYKEFIENSELKRVGMEFETGNISSAHRSMNKLLLGLKHGEIDLAIILMPIKQLAYYLTDRVTNFEELEPYFELTEGQPFIFIGFNAEAYNSNVPLIPKDSDGMSKRSIKKWKDKVENK | 1
BamHI T157I: BamHI restriction enzyme with mutation T157I (protein, UniProt P23940 1-213, looked up, variant T157I) Type II restriction enzyme …: MEVEKEFITDEAKELLSKDKLIQQAYNEVKTSICSPIWPATSKTFTINNTEKNCNGVVPIKELCYTLLEDTYNWYREKPLDILKLEKKKGGPIDVYKEFIENSELKRVGMEFETGNISSAHRSMNKLLLGLKHGEIDLAIILMPIKQLAYYLTDRVINFEELEPYFELTEGQPFIFIGFNAEAYNSNVPLIPKGSDGMSKRSIKKWKDKVENK | 1
BamHI E135K: BamHI restriction enzyme with mutation E135K (protein, UniProt P23940 1-213, looked up, variant E135K) Type II restriction enzyme …: MEVEKEFITDEAKELLSKDKLIQQAYNEVKTSICSPIWPATSKTFTINNTEKNCNGVVPIKELCYTLLEDTYNWYREKPLDILKLEKKKGGPIDVYKEFIENSELKRVGMEFETGNISSAHRSMNKLLLGLKHGKIDLAIILMPIKQLAYYLTDRVTNFEELEPYFELTEGQPFIFIGFNAEAYNSNVPLIPKGSDGMSKRSIKKWKDKVENK | 1
BamHI D94N: BamHI restriction enzyme with mutation D94N (protein, UniProt P23940 1-213, looked up, variant D94N) Type II restriction enzyme …: MEVEKEFITDEAKELLSKDKLIQQAYNEVKTSICSPIWPATSKTFTINNTEKNCNGVVPIKELCYTLLEDTYNWYREKPLDILKLEKKKGGPINVYKEFIENSELKRVGMEFETGNISSAHRSMNKLLLGLKHGEIDLAIILMPIKQLAYYLTDRVTNFEELEPYFELTEGQPFIFIGFNAEAYNSNVPLIPKGSDGMSKRSIKKWKDKVENK | <0.1
BamHI G56S: BamHI restriction enzyme with mutation G56S (protein, UniProt P23940 1-213, looked up, variant G56S) Type II restriction enzyme …: MEVEKEFITDEAKELLSKDKLIQQAYNEVKTSICSPIWPATSKTFTINNTEKNCNSVVPIKELCYTLLEDTYNWYREKPLDILKLEKKKGGPIDVYKEFIENSELKRVGMEFETGNISSAHRSMNKLLLGLKHGEIDLAIILMPIKQLAYYLTDRVTNFEELEPYFELTEGQPFIFIGFNAEAYNSNVPLIPKGSDGMSKRSIKKWKDKVENK | 1
BsoBI I95M: BsoBI restriction enzyme with mutation I95M (protein, UniProt P70985 2-323, looked up, variant I95M) Type II restriction enzyme …: NTQKPFENHLKSVDDLKTTYEEYRAGFIAFALEKNKRSTPYIERARALKVAASVAKTPKDLLYLEDIQDALLYASGISDKAKKFLTEDDKKESMNNLIENFLEPAGEEFIDELIFRYLLFQGDSLGGTMRNIAGALAQQKLTRAIISALDIANIPYKWLDSRDKKYTNWMDKPEDDYELETFAKGISWTINGKHRTLMYNITVPLVKKNVDICLFNCEPEIYTPQKVHQQPEKYLLLGELKGGIDPAGADEHWKTANTALTRIRNKFSEKGLSPKTIFIGAAIEHSMAEEIWDQLQSGSLTNSANLTKTEQVGSLCRWIINI | <0.1
BsoBI D246G: BsoBI restriction enzyme with mutation D246G (protein, UniProt P70985 2-323, looked up, variant D246G) Type II restriction enzyme …: NTQKPFENHLKSVDDLKTTYEEYRAGFIAFALEKNKRSTPYIERARALKVAASVAKTPKDLLYLEDIQDALLYASGISDKAKKFLTEDDKKESINNLIENFLEPAGEEFIDELIFRYLLFQGDSLGGTMRNIAGALAQQKLTRAIISALDIANIPYKWLDSRDKKYTNWMDKPEDDYELETFAKGISWTINGKHRTLMYNITVPLVKKNVDICLFNCEPEIYTPQKVHQQPEKYLLLGELKGGIGPAGADEHWKTANTALTRIRNKFSEKGLSPKTIFIGAAIEHSMAEEIWDQLQSGSLTNSANLTKTEQVGSLCRWIINI | <0.1
BsoBI D212V: BsoBI restriction enzyme with mutation D212V (protein, UniProt P70985 2-323, looked up, variant D212V) Type II restriction enzyme …: NTQKPFENHLKSVDDLKTTYEEYRAGFIAFALEKNKRSTPYIERARALKVAASVAKTPKDLLYLEDIQDALLYASGISDKAKKFLTEDDKKESINNLIENFLEPAGEEFIDELIFRYLLFQGDSLGGTMRNIAGALAQQKLTRAIISALDIANIPYKWLDSRDKKYTNWMDKPEDDYELETFAKGISWTINGKHRTLMYNITVPLVKKNVVICLFNCEPEIYTPQKVHQQPEKYLLLGELKGGIDPAGADEHWKTANTALTRIRNKFSEKGLSPKTIFIGAAIEHSMAEEIWDQLQSGSLTNSANLTKTEQVGSLCRWIINI | <0.1
BsoBI G123R: BsoBI restriction enzyme with mutation G123R (protein, UniProt P70985 2-323, looked up, variant G123R) Type II restriction enzyme …: NTQKPFENHLKSVDDLKTTYEEYRAGFIAFALEKNKRSTPYIERARALKVAASVAKTPKDLLYLEDIQDALLYASGISDKAKKFLTEDDKKESINNLIENFLEPAGEEFIDELIFRYLLFQRDSLGGTMRNIAGALAQQKLTRAIISALDIANIPYKWLDSRDKKYTNWMDKPEDDYELETFAKGISWTINGKHRTLMYNITVPLVKKNVDICLFNCEPEIYTPQKVHQQPEKYLLLGELKGGIDPAGADEHWKTANTALTRIRNKFSEKGLSPKTIFIGAAIEHSMAEEIWDQLQSGSLTNSANLTKTEQVGSLCRWIINI | <0.1
BsoBI D124Y: BsoBI restriction enzyme with mutation D124Y (protein, UniProt P70985 2-323, looked up, variant D124Y) Type II restriction enzyme …: NTQKPFENHLKSVDDLKTTYEEYRAGFIAFALEKNKRSTPYIERARALKVAASVAKTPKDLLYLEDIQDALLYASGISDKAKKFLTEDDKKESINNLIENFLEPAGEEFIDELIFRYLLFQGYSLGGTMRNIAGALAQQKLTRAIISALDIANIPYKWLDSRDKKYTNWMDKPEDDYELETFAKGISWTINGKHRTLMYNITVPLVKKNVDICLFNCEPEIYTPQKVHQQPEKYLLLGELKGGIDPAGADEHWKTANTALTRIRNKFSEKGLSPKTIFIGAAIEHSMAEEIWDQLQSGSLTNSANLTKTEQVGSLCRWIINI | <0.1
BsoBI D212N: BsoBI restriction enzyme with mutation D212N (protein, UniProt P70985 2-323, looked up, variant D212N) Type II restriction enzyme …: NTQKPFENHLKSVDDLKTTYEEYRAGFIAFALEKNKRSTPYIERARALKVAASVAKTPKDLLYLEDIQDALLYASGISDKAKKFLTEDDKKESINNLIENFLEPAGEEFIDELIFRYLLFQGDSLGGTMRNIAGALAQQKLTRAIISALDIANIPYKWLDSRDKKYTNWMDKPEDDYELETFAKGISWTINGKHRTLMYNITVPLVKKNVNICLFNCEPEIYTPQKVHQQPEKYLLLGELKGGIDPAGADEHWKTANTALTRIRNKFSEKGLSPKTIFIGAAIEHSMAEEIWDQLQSGSLTNSANLTKTEQVGSLCRWIINI | <0.1
BsoBI E252K: BsoBI restriction enzyme with mutation E252K (protein, UniProt P70985 2-323, looked up, variant E252K) Type II restriction enzyme …: NTQKPFENHLKSVDDLKTTYEEYRAGFIAFALEKNKRSTPYIERARALKVAASVAKTPKDLLYLEDIQDALLYASGISDKAKKFLTEDDKKESINNLIENFLEPAGEEFIDELIFRYLLFQGDSLGGTMRNIAGALAQQKLTRAIISALDIANIPYKWLDSRDKKYTNWMDKPEDDYELETFAKGISWTINGKHRTLMYNITVPLVKKNVDICLFNCEPEIYTPQKVHQQPEKYLLLGELKGGIDPAGADKHWKTANTALTRIRNKFSEKGLSPKTIFIGAAIEHSMAEEIWDQLQSGSLTNSANLTKTEQVGSLCRWIINI | <0.1
BsoBI K209R: BsoBI restriction enzyme with mutation K209R (protein, UniProt P70985 2-323, looked up, variant K209R) Type II restriction enzyme …: NTQKPFENHLKSVDDLKTTYEEYRAGFIAFALEKNKRSTPYIERARALKVAASVAKTPKDLLYLEDIQDALLYASGISDKAKKFLTEDDKKESINNLIENFLEPAGEEFIDELIFRYLLFQGDSLGGTMRNIAGALAQQKLTRAIISALDIANIPYKWLDSRDKKYTNWMDKPEDDYELETFAKGISWTINGKHRTLMYNITVPLVKRNVDICLFNCEPEIYTPQKVHQQPEKYLLLGELKGGIDPAGADEHWKTANTALTRIRNKFSEKGLSPKTIFIGAAIEHSMAEEIWDQLQSGSLTNSANLTKTEQVGSLCRWIINI | <0.1
